In paper PMC11480844:

B1: H2-Kb / E9 (parent)
chain 1: QQKVQQSPESLTVSEGAMASLNCTFSDRSSDNFRWYRQHSGKGLEVLVSIFSDGEKEEGSFTAHLNRASLHVFLHIREPQPSDSALYLCAVSRSSGSWQLIFGSGTQLTVMP
chain 2: NSGVVQSPRYIIKGKGERSILKCIPISGHLSVAWYQQTQGQELKFFIQHYDKMERDKGNLPSRFSVQQFDDYHSEMNMSALELEDSAVYFCASSRDSNNQAPLFGEGTRLSVL
chain 3: not shown
chain 4: IQKTPQIQVYSRHPPENGKPNILNCYVTQFHPPHIEIQMLKNGKKIPKVEMSDMSFSKDWSFYILAHTEFTPTETDTYACRVKHDSMAEPKTVYWDRDM
chain 5: SIINFEKL
B2: H2-Kb / B13 (parent)
chain 1: AQKVTQTQTSISVMEKTTVTMDCVYETQDSSYFLFWYKQTASGEIVFLIRQDSYKKENATVGHYSLNFQKPKSSIGLIITATQIEDSAVYFCAMREGTGGYKVVFGSGTRLLVSP
chain 2: EAAVTQSPRNKVTVTGGNVTLSCRQTNSHNYMYWYRQDTGHGLRLIHYSYGAGNLQIGDVPDGYKATRTTQEDFFLLLELASPSQTSLYFCASSDGTGHEQYFGPGTRLTVL
chain 3: not shown
chain 4: B1 chain 4
chain 5: SIINFEKL
B3: H2-Kb / H5 (parent)
chain 1: GEQVEQRPPHLSVREGDSAVIICTYTDPNSYYFFWYKQEPGAGLQLLMKVFSSTEINEGQGFTVLLNKKDKQLSLNLTAAHPGDSAVYFCAVSNYGSSGNKLIFGIGTLLSVKP
chain 2: EAAVTQSPRNKVAVTGGKVTLSCNQTNNHNNMYWYRQDTGHGLRLIHYSYGAGSTEKGDIPDGYKASRPSQENFSLILELATPSQTSVYFCASGDRERDTQYFGPGTRLLVL
chain 3: not shown
chain 4: B1 chain 4
chain 5: SIINFEKL

Variants of: B1
Assay: % of reporter cells activated (NFAT-GFP), raw
Conditions: with E9; scale: % of reporter cells activated
Also: test concentration or dose not given here.

Ratio to parent of substitutions, site by site:
chain 5 S1: W 1.2 | Y 1.2

Variants of: B2
Assay: % of reporter cells activated (NFAT-GFP), raw
Conditions: with B13; scale: % of reporter cells activated

Ratio to parent: each site, then its substitutions
chain 5 S1: V 0.857 | Q 0.392
chain 5 K7: T 1.03 | S 1.02
chain 5 F5: V 0.331 | W 0.0204 | H 0.366
chain 5 E6: I 0.0222
chain 5 I2: Y 2.07 | F 1.01
chain 5 I3: R 1.96
chain 5 N4: Y 0.0196 | S 0.0507

Variants of: B3
Assay: % of reporter cells activated (NFAT-GFP), raw
Conditions: with H5; scale: % of reporter cells activated

Ratio to parent of substitutions, site by site:
chain 5 I3: F 0.276 | P 0.49 | A 0.306 | C 0.5 | E 0.357 | V 0.985 | D 0.265 | T 0.352 | M 0.327 | Q 0.337 | W 0.286 | L 0.74 | H 0.372 | S 0.276 | R 0.403 | K 0.423 | N 0.367 | Y 0.321 | G 0.347
chain 5 I2: V 1.03 | F 0.653 | R 0.24 | D 0.505 | M 0.684 | K 0.388 | T 0.526 | C 0.74 | H 0.332 | A 0.663 | Y 0.352 | N 0.362 | E 0.408 | P 0.327 | G 0.505 | Q 0.454 | S 0.75 | W 0.378 | L 0.607
chain 5 L8: Q 0.842 | W 0.255 | T 0.719 | I 0.786 | V 0.531 | S 0.464 | K 0.837 | E 0.49 | M 0.689 | C 0.781 | H 0.985 | R 0.485 | D 0.352 | F 0.423 | A 0.709 | Y 0.755 | P 0.332 | N 0.281 | G 0.515
chain 5 N4: W 0.5 | A 0.301 | H 8.69 | P 0.255 | T 0.352 | C 0.49 | D 0.316 | M 0.352 | Y 1.1 | F 1.27 | R 0.454 | L 0.469 | Q 0.245 | I 0.347 | E 0.367 | K 0.592 | G 0.362 | S 0.332 | V 0.332
chain 5 K7: M 0.362 | I 1.12 | C 0.77 | P 0.551 | H 0.806 | D 0.597 | Y 0.383 | F 0.306 | E 4.34 | Q 0.592 | S 0.76 | L 0.638 | W 0.352 | R 1.01 | A 0.648 | T 1.8 | V 0.75 | N 0.893 | G 0.811
chain 5 S1: D 0.281 | N 0.352 | Y 0.27 | K 0.602 | T 0.587 | R 0.852 | M 2.39 | L 0.398 | A 0.474 | F 0.638 | Q 0.469 | C 0.316 | V 0.388 | G 0.25 | I 0.454 | W 0.332 | H 0.474 | E 0.281 | P 0.383
chain 5 E6: M 0.311 | R 0.362 | S 0.444 | I 0.408 | N 0.301 | Y 0.332 | C 0.342 | H 0.643 | P 0.301 | Q 0.357 | L 0.265 | F 0.296 | T 0.459 | G 0.306 | W 0.25 | A 0.454 | K 0.332 | D 0.235 | V 0.342
chain 5 F5: N 0.48 | H 0.719 | Y 0.765 | E 0.352 | A 0.923 | R 0.311 | G 0.316 | T 0.367 | I 2.01 | D 0.439 | M 1.13 | S 0.531 | C 0.816 | L 0.663 | P 0.459 | W 0.515 | Q 0.638 | V 0.617 | K 0.362
